Assay results reported in publication PMC6219552, “β-Glucuronidases of opportunistic bacteria are the major contributors to xenobiotic-induced toxicity in the gut” (Scientific Reports, 2018).

Legend:
[1] = biological target: Bifidobacterium dentium β-D-glucuronidase, catalytically inactive mutant E479A (Bifidobacterium dentium); experiment: crystal structure; crystals of the purified GUS alone, soaked with UIFG (RgGUS, BfGUS) or with compound 10 (BifdGUS E479A); oligomer as seen in the crystal structures
[2] = biological target: the molecule itself; experiment: as above

Molecule | stoichiometry N [1] | stoichiometry N [2]
Bifidobacterium dentium β-D-glucuronidase, catalytically inactive mutant E479A (enzyme) | 4 | –
Bacteroides fragilis β-D-glucuronidase (enzyme, β-D-glucuronidase (GUS) of Bacteroides fragilis, codon-optimized gene bought from GenScript, in pET15b; apo structure PDB 3CMG named as search model; Crystallised and soaked with UIFG; Its PDB code is one of 5Z18, 5Z19, 5Z1A, 5Z1B; also called BfGUS) RQDILLNNNWNFRFSHQVQGDTRRVDLPHTWNAQDALAGKIDYKRGIGNYEKALYIRPEWKGKRLFLRFDGVNSIADVFINRKHIGEHRGGYGAFIFEITDLVKYGEKNSVLVRANNGEQLDIMPLVGDFNFYGGIYRDVHLLITDETCISPLDYASPGVYLVQEVVSPQEAKVCAKVNLSNRAADGTAELQVLVTDGTKVICKESRNVSLKQGADILEQLPLLIQKPRLWNGCEDPFMYQVSISLHKDGKQIDSVTQPLGLRYYHTDPDKGFFLNGKHLPLHGVCRHQDRAEVGNALRPQHHEEDVALMREMGVNAIRLAHYPQATYMYDLMDKHGIVTWAEIPFVGPGGYADKGFVDQASFRENGKQQLIELIRQHYNHPSICFWGLFNELKEVGDNPVEYVKELNALAKQEDPTRPTTSASNQDGNLNFITENIAWNRYDGWYGSTPKTLATFLDRTHKKHPELRIGISEYGAGASIYHQQDSLKQPSASGWWHPENWQTYYHMENWKIIAERPFVWGTFVWNMFDFGAAHRTEGDRPGINDKGLVTFDRKVRKDAFYFYKANWNKQEPMIYLAEKRCRLRYQPEQTFMAFTTAPEAELFVNGVSCGKQKADTYSTVVWKNVKLTSGENIIRVTTPGKKPLTDEVTVEYKEDR | – | 4
Ruminococcus gnavus β-D-glucuronidase (enzyme) MLEYSELYPIQNEYRMMQSLDGMWKFQFDPEEIGKKSGWENGLPAPVSMPVPSSFADFFTDHKERDYCGDFWYETEFYLPAEWRNKKIWLRFGSITHRGTVYCNGMEITSHEGGFLPVLADISTVAKPGQVNQVVVKINNELNETSLPCGATKILNNGRKLAKPYFDFFNYSGLQRSVWVIALPEESVKDYSVDYELCGTDALVKYEVVTTGEHPVIVRLLDAEGELVAETEGKEGILQVANARLWEVRNAYLYQIVILITDGNGVLDEYREKIGIRTVRIEGTKILLNDRPVYLKGFGKHEDFPILGRGFHWGIVKRDFECLKWTNANCFRTSHYPYAEEWYQFADEEGFLIIDEVPAVGMMRSTRNFVAAGSGNYTYFFEALTVPELLKSHIADTEEMITRDKNHPSVIAWSLFNEPETITDYAYEYFKEVFAAAETYDFQSRPMTGAFEKNSKPELCKCYPLCDFICLNRYYGWYISGGPEIEEAEELFRDEMDRWKAKELNVPFVFTEFGTDTMAGLHKLPSIMWSEEYQKEYLEMNFRVFDSYEFVQGELAWNFADFQTTEGIMRVDGNHKGVFTRDRQPKAAAVVFKDRWEKKNELF | – | 4
